Experimental data: US20250368714A1, “TREATMENT OF CANCER” (Immutep S.A.S., priority 2022, published 2025)

Assays:
[1] = Nonclinical toxicity study; assay type: in vivo
[2] = tested on: primary and secondary immune cells; experiment: PD effects in vitro and ex vivo: activation of immune cells, induction of cytokines; assay type: cell-based
[3] = Clinical pharmacokinetics of s.c. efti in cancer patients; assay type: in vivo, human; conditions: for Cavg24h: cancer patients
Procedure: (§1) On the other hand, pre-study levels of CD8+ T cells were not correlated with OS in either treatment arm. Efti increases secondary target cells (CD8+ T cells) in the peripheral blood, leading to improved OS.
Efti doses of 6 and 30 mg given clinically lead to plasma Cmax of ≥1 ng/ml in most patients, this concentration reflecting the minimum concentration for desired efti PD effects. However, systemic efti levels of >1 ng/ml and lasting for ≥24 h have been observed in about 90% of patients receiving efti 30 mg, compared to only 20% at 6 mg.

[4] = Pharmacokinetics of s.c. IMP321 in metastatic renal cell cancer patients; assay type: in vivo, human; conditions: for at least 24 hours after s.c. injection; doses of more than 6 mg
[5] = Clinical safety and tolerability of IMP321 (efti)
[6] = tested on: HER2 negative hormone receptor-positive metastatic breast cancer patients; experiment: AIPAC Phase IIb study: paclitaxel+IMP321 vs paclitaxel+placebo, overall survival; assay type: in vivo, human
Procedure: A multicentre, placebo-controlled, double-blind, 1:1 randomised Phase IIb study in female HER2 negative hormone receptor-positive metastatic breast cancer patients was conducted. The study comprised two stages: • stage 1 which was an open-label, safety run-in stage consisting of cohorts 1 and 2 to confirm the recommended Phase II dose (RPTD) of IMP321 in combination with paclitaxel; and • stage 2 which was a placebo-controlled, double-blind randomisation stage, paclitaxel+IMP321 at the RPTD compared to paclitaxel+placebo.
The chemo-immunotherapy phase consisted of 6 cycles of 4 weeks. Patients received weekly paclitaxel at Days 1, 8 and 15 with adjunctive treatment of study agent (IMP321) on Days 2 and 16 of each 4-week cycle. After completion of the 6-cycle chemo-immunotherapy phase, responding or stable patients received study agent (IMP321) every 4 weeks during the maintenance phase for an additional period of up to 12 injections.
The chemo-immunotherapy phase consisted of 6 cycles of 4 weeks. Patients received weekly paclitaxel at Days 1, 8 and 15 with adjunctive treatment of study agent (placebo) on Days 2 and 16 of each 4-week cycle.
After completion of the 6-cycle chemo-immunotherapy phase, responding or stable patients received study agent (placebo) every 4 weeks during the maintenance phase for an additional period of up to 12 injections.
In addition, multivariate analysis was done using backward selection (p>0.15) from the univariate cox model.

[7] = tested on: Blood cell subsets (CD4, CD8, PBMCs, monocytes) and Th1 biomarker (CXCL-10); experiment: AIPAC immuno-monitoring of blood cell subsets, Th1 biomarker and absolute lymphocyte count; assay type: in vivo, human
Procedure: Immuno-monitoring was also conducted. Blood cell subsets (CD4, CD8, PBMCs, monocytes) and Th1 biomarker (CXCL-10) were measured centrally. Comparison was done using 2-sided Wilcoxon test.
as §1
Increase of ALC is linked to improved survival for patients treated with efti arm, but not for patients in the placebo arm (FIG. 9). […] As this increase is observed early, it could be used in the future as a potential early on study biomarker for treatment continuation.

[8] = tested on: CD4+ and CD8+ T cells numbers and activation status, IFN-γ and CXCL10; experiment: PD markers of T cell immune response in patients dosed with efti every 2 weeks; assay type: in vivo, human
[9] = human, in vivo
[10] = 8 treatment emergent adverse events in 3 of 5 patients with Cmax >10 ng/ml
[11] = Overall population, paclitaxel+IMP321 30 mg vs paclitaxel+placebo, univariate analysis, p 0.197
[12] = Sub-group <5 years since diagnosis, multivariate analysis table, p 0.025
[13] = Sub-group <65 years, univariate analysis, p 0.017
[14] = Sub-group Luminal B, univariate analysis, p 0.049
[15] = Sub-group high (>3.65) NLR at baseline, multivariate analysis table, p 0.012
[16] = Sub-group low baseline monocytes (<0.25/nL), univariate analysis, p 0.008
[17] = Sub-group low baseline monocytes, multivariate analysis table, p 0.008
[18] = Sub-group no prior taxane therapy, multivariate analysis table, p 0.076
[19] = Sub-group no prior taxane therapy, univariate analysis, p 0.076

B1: IMP321: recombinant soluble human LAG-3Ig fusion protein, 160-kDa dimer: extracellular domain of hLAG-3 fused to human IgG1 Fc; APC activator (protein)
chain: LQPGAEVPVVWAQEGAPAQLPCSPTIPLQDLSLLRRAGVTWQHQPDSGPPAAAPGHPLAPGPHPAAPSSWGPRPRRYTVLSVGPGGLRSGRLPLQPRVQLDERGRQRGDFSLWLRPARRADAGEYRAAVHLRDRALSCRLRLRLGQASMTASPPGSLRASDWVILNCSFSRPDRPASVHWFRNRGQGRVPVRESPHHHLAESFLFLPQVSPMDSGPWGCILTYRDGFNVSIMYNLTVLGLEPPTPLTVYAGAGSRVGLPCRLPAGVGTRSFLTAKWTPPGGGPDLLVTGDNGDFTLRLEDVSQAQAGTYTCHIHLQEQQLNATVTLAIITVTPKSFGSPGSLGKLLCEVTPVSGQERFVWSSLDTPSQRSFSGPWLEAQEAQLLSQPWQCQLYQGERLLGAAVYFTELSSPG
modifications: left off: small tags and cut ends; a dimerising Fc or GST
NOAEL dose [1]: 15 mg/kg
efti concentration at which desired PD effects start [2]: 1 to 10 ng/mL
patients with systemic efti levels of >1 ng/ml lasting for ≥24 h ([3]; 6 mg): 20%
Cavg24h ([3]; 6 mg): 0.8 ng/mL
patients with systemic efti levels of >1 ng/ml lasting for ≥24 h ([3]; 30 mg): about 90%
Cavg24h ([3]; 30 mg s.c.): 3.3 ng/mL
plasma Cmax ([3]; doses of 6 and 30 mg, in most patients): ≥ 1 ng/mL
time until efti disappears from the bloodstream after injection ([3]; s.c. injection): 3 to 4 days
blood concentration of IMP321 [4]: > 1 ng/mL
grade ≥3 adverse events related to efti ([5]; 5 patients with Cmax of >10 ng/ml at dose 1): no grade ≥3 adverse events related to efti
adverse reactions mild in severity [5, 10]: 62.5%
adverse reactions moderate in severity [5, 10]: 37.5%
dose limiting toxicity ([5]; observed to date): No dose limiting toxicity
Absolute gain in median OS [6, 11]: +2.9 months
Hazard Ratio [95% CI] (OS) [6, 11]: 0.88
Absolute gain in median OS [6, 12]: +4.8 months
Hazard Ratio [95% CI] (OS) [6, 12]: 0.62
Absolute gain in median OS [6, 13]: +7.5 months
Hazard Ratio [95% CI] (OS) [6, 13]: 0.66
Absolute gain in median OS [6, 14]: +4.2 months
Hazard Ratio [95% CI] (OS) [6, 14]: 0.67
Absolute gain in median OS [6, 15]: +6.9 months
Hazard Ratio [95% CI] (OS) [6, 15]: 0.61
Absolute gain in median OS [6, 16]: +19.6 months
Hazard Ratio [95% CI] (OS) [6, 16]: 0.44
Absolute gain in median OS [6, 17]: +19.6 months
Hazard Ratio [95% CI] (OS) [6, 17]: 0.44
Absolute gain in median OS [6, 18]: +4.8 months
Hazard Ratio [95% CI] (OS) [6, 18]: 0.74
Absolute gain in median OS [6, 19]: +4.8 months
Hazard Ratio [95% CI] (OS) [6, 19]: 0.74
improvement in median overall survival (OS) ([6]; young patients (<65 years), low baseline monocytes (<0.25/nL), or Luminal B, exploratory univariate analysis): significant and clinically meaningful improvement
On treatment fold-change of PBMCs ([7]; IMP321 group vs placebo 1.41, p=0.041): 2.00 fold
On treatment fold-change of T cells ([7]; IMP321 group vs placebo 1.48, p=0.086): 2.28 fold
On treatment fold-change of CXCL10 ([7]; IMP321 group vs placebo 1.56, p=0.06): 2.78 fold
On treatment fold-change of monocytes ([7]; IMP321 group vs placebo 2.29, p=0.025): 5.81 fold
absolute lymphocyte count increase ([7]; efti arm, early (after 4 weeks) and sustainable): ≥ 0.2 nL⁻¹
circulating CD8+ T cells ([7]; efti arm, fresh whole blood by FACS (n=75), samples 2 weeks after previous efti dose, not in placebo arm): sustainable, statistically significant increase
Post baseline CD8 T cells count (median) ([7]; patients with improved OS, IMP321 group vs placebo 223, p=0.005): 377 µL⁻¹
Post baseline CD4 T cells count (median) ([7]; patients with improved OS, IMP321 group vs placebo 736, p=0.038): 896 µL⁻¹
proportion of patients with upregulation of at least one PD marker (1.4-fold increase compared to baseline) ([8]; 1 mg): about 50%
proportion of patients with upregulation of at least one PD marker (1.4-fold increase compared to baseline) ([8]; 30 mg): about 90%
safety and tolerability of dose [9]: safe and tolerable
safety of s.c. doses ([9]; sc): safe
